The results in this text go back to patent US20050064539A1.

This test has as its target mannose-6-phosphate receptor (human (cultured skin fibroblasts from a Fabry disease patient)) (UniProt O00264). Nature of the test: cell-based or functional assay.
Chain of UniProt O00264 (O00264 whole entry): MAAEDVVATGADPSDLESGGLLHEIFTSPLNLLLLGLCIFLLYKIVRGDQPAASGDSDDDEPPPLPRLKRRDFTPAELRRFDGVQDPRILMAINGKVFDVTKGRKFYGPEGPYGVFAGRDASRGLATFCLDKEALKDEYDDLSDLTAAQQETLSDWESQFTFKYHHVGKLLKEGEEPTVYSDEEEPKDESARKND

Regarding “mannosidase-treated α-galactosidase (human α-galactosidase produced by S. cerevisiae strain HPY21G, treated with Cellulomonas SO-5-derived α-mannosidase) (from UniProt P06280 32-429) (enzyme)”, the α-galactosidase activity in the cell extract of Fabry patient-derived fibroblasts 18 hours after adding enzyme at 1 µg/ml (uptake experiment) was determined as 3 fold.
